# In PMC7413259, “Identification of the viral RNA promoter stem loop A (SLA)-binding site on Zika virus polymerase NS5”:
# B1: epsilonA(p-epsilonA)19 20-mer ssRNA (ssRNA)
# RNA: AAAAAAAAAAAAAAAAAAAA
# modifications: all A etheno-modified (1,N6-ethenoadenosine)
# Key:
# [1] = target: ZIKV NS5 WT (Zika virus, UniProt A0A024B7W1 2521-3423); experiment: fluorescence titration; buffer B1; B1: 50 mM Tris-HCl pH 8.0, 150 mM NaCl, 1 mM MgCl2, 2 mM beta-mercaptoethanol, 10% glycerol, 20 C; B2: same with 100 mM NaCl, 20 C; conditions: protein: recombinant; tags: N-terminal His6-SUMO, cleaved; label: etheno-A fluorescence; single strand
# [2] = target: ZIKV NS5 MTase domain WT (Zika virus, UniProt A0A142I5B9 2521-2785); experiment: fluorescence anisotropy; buffer B2; B1: 50 mM Tris-HCl pH 8.0, 150 mM NaCl, 1 mM MgCl2, 2 mM beta-mercaptoethanol, 10% glycerol, 20 C; B2: same with 100 mM NaCl, 20 C; conditions: protein: recombinant; tags: N-terminal His6; label: etheno-A fluorescence; single strand
binder,measurement,setting,value
B1,Kd,[1],500 nM
same,Kd,[2],910 nM
